From paper doi:10.1101/2022.11.09.515846 (bioRxiv, 2022) come the findings set out here.

For the test, the target named is T1, human Ndc80 loop segment (residues 370–509) with a cysteine added at each end (human, UniProt O14777 370-509).
T1 chain: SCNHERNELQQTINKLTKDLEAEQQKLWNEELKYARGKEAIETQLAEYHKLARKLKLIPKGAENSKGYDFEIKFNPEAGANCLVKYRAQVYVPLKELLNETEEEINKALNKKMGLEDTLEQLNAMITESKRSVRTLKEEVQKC
The test is described as follows: crystal structure.

B1: human Nuf2 segment (residues 252–347) with a cysteine added at each end (domain or fragment)
chain: CKNYKEKMKDTVQKLKNARQEVVEKYEIYGDSVDCLPSCQLEVQLYQKKIQDLSDNREKLASILKESLNLEDQIESDESELKKLKTEENSFKRLMIVC
As for B1, the binding result is given as “binds”.
